The supplement of paper PMC10567573

B1: UBE2R2 (parent)
chain: DPQSGELPSERWNPTQNVRTILLS

Variants of: B1
Experiment: protein stability index of a GFP-peptide fusion (GPS, HEK-293T) (PSI 1-6); higher = more stable
Conditions: c terminus: a fixed tail appended
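Further: lentivirally expressed fusions sorted by FACS into six bins by GFP to DsRed ratio, PSI derived from sequencing read proportions per bin multiplied by bin number.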

Protein stability index: each site, then its substitutions
L7: W 2.62; Y 3.06
P8: A 4.13; C 4.2; D 3.68; E 3.82; F 3.27; H 3.59; I 2.69; K 3.58; L 3.55; M 3.66; N 3.53; Q 3.57; R 3.37; S 3.48; T 3.06; V 3.33; W 3.05; Y 3.34
S9: A 4.37; C 3.9; D 3.86; E 3.95; F 2.4; G 3.27; H 3.47; I 4.09; K 3.94; L 3.76; M 3.87; N 3.8; P 3.43; Q 3.35; R 3.43; T 3.98; V 3.81; W 2.58; Y 2.92
E10: A 2.98; C 2.81; D 3.43; F 2.45; G 2.84; H 3.14; I 2.55; K 3.05; L 2.98; M 3.09; N 3.35; P 3.51; Q 3.5; R 3.17; S 2.95; T 3.48; V 2.6; W 2.39; Y 2.71
R11: A 3.77; C 3.76; D 3.88; E 4.44; F 2.82; G 4.23; H 3.3; I 2.77; K 3.5; L 3.24; M 3.22; N 3.48; P 3.71; Q 4.04; S 3.56; T 3.98; V 3.62; W 2.79; Y 2.82
W12: A 4.61; C 3.94; D 4.81; E 4.71; F 3.92; G 4.33; H 4.08; I 4.35; K 4.54; L 3.62; M 4.1; N 4.48; P 4.4; Q 4.44; R 4.31; S 4.67; T 4.72; V 4.2; Y 4.07
N13: A 3.78; C 2.78; D 4.22; E 3.83; F 2.66; G 2.46; H 3.3; I 2.87; K 3.88; L 3.47; M 3.79; P 3.71; Q 3.87; R 3.31; S 4; T 3.76; V 3.17; W 2.87; Y 3.16
P14: A 3.34; C 3.35; D 4.12; E 4.08; F 2.32; G 3.71; H 2.98; I 2.8; K 3.56; L 2.79; M 3.09; N 3.17; Q 3.93; R 4.28; S 3.69; T 4.13; V 3.48; W 3.12; Y 3.01
T15: A 3.15; C 3.26; D 4.15; E 3.6; F 2.51; G 3.53; H 3.79; I 2.78; K 3.5; L 2.86; M 2.86; N 3.89; P 3.14; Q 3.63; R 3.76; S 3.39; V 3.48; W 2.13; Y 3.22
Q16: A 3.67; C 3.04; D 3.97; E 2.95; F 2.5; G 3.53; H 3.44; I 2.83; K 3.51; L 2.88; M 3.46; N 3.48; P 3.24; R 3.81
